Laboratory results published in patent US20250109209A1 (ABSCI, published 2025).
Where two headings read alike, the source gives them in different places.

T1: mouse TL1A (mouse, UniProt Q5UBV8 76-252, limits assumed)
T1 sequence (looked up): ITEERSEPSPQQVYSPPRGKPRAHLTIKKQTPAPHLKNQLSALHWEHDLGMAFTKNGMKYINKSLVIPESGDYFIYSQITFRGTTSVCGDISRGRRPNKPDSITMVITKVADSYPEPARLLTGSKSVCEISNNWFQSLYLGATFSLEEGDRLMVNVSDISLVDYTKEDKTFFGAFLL

T2: human TL1A (human, UniProt O95150 72-251)
T2 construct: Antigen in SPR and ELISA; Also used here for places that print only 'TL1A' and for endogenous TL1A in human whole blood; also called TNFSF15
T2 sequence (looked up): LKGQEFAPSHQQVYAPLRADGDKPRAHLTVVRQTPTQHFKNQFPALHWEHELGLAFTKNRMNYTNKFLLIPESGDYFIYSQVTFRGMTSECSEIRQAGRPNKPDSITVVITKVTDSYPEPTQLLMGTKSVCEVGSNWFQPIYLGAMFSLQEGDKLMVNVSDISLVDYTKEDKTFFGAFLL

T3: Cyno TL1A (cyno, UniProt G7PRK8 72-251)
T3 sequence: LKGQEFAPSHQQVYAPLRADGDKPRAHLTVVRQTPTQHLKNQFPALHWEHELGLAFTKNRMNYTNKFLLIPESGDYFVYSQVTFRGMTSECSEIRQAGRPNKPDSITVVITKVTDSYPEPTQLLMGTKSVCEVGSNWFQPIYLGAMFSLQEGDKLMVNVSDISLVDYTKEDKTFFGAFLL


Key:
[1] = biological target: T4, FcRn (UniProt P55899 24-297; P61769 21-119); assay: SPR, mAb format, FcRn at pH 6.0, average
T4 construct: also called neonatal receptor

[2] = biological target: T1, mouse TL1A; assay: SPR, mAb format
[3] = biological target: T2, human TL1A; assay: SPR, mAb format, average
[4] = biological target: T2, human TL1A; assay: SPR, mAb format, average; remark: listed apart in the source
[5] = biological target: T2, human TL1A; assay: SPR, mAb format, average; remark: listed apart in the source
[6] = biological target: T3, Cyno TL1A; assay: SPR, mAb format, average
[7] = biological target: T1, mouse TL1A; assay: SPR, mAb format, average

Kd [1] [nM]	binding result [2]	Kd [3] [nM]	Kd [4] [nM]	Kd [5] [nM]	Kd [6] [nM]	Kd [7] [nM]	Binder
16.5	–	0.38	0.38	0.38	0.123	691	Antibody 19 (mAb format) (antibody, human IgG1, kappa, N297A, also called high priority lead mAb) heavy: QVQLQESGPGLVRPSQTLSLTCTVSGFDITDTYMHWVRQRPGRGLEWMGRIEPAGGHTKYNPSLKSRVTITRDTSKNQVSLRLSSVTAADTAVYYCVRSGGLPDVWGQGSLVTVSSASTKGPSVFPLAPSSKSTSGGTAALGCLVKDYFPEPVTVSWNSGALTSGVHTFPAVLQSSGLYSLSSVVTVPSSSLGTQTYICNVNHKPSNTKVDKKVEPKSCDKTHTCPPCPAPELLGGPSVFLFPPKPKDTLMISRTPEVTCVVVDVSHEDPEVKFNWYVDGVEVHNAKTKPREEQYASTYRVVSVLTVLHQDWLNGKEYKCKVSNKALPAPIEKTISKAKGQPREPQVYTLPPSRDELTKNQVSLTCLVKGFYPSDIAVEWESNGQPENNYKTTPPVLDSDGSFFLYSKLTVDKSRWQQGNVFSCSVLHEALHSHYTQKSLSLSPGK light: not shown
16.4	–	0.079	0.079	0.079	0.046	391	Antibody 20 (mAb format) (antibody, human IgG1, kappa, N297A, also called high priority lead mAb) heavy: QVQLQESGPGLVRPSQTLSLTCTVSGFDIQDTYMHWVRQRPGRGLEWMGRIEPASGHTKYNPSLKSRVTITRDTSKNQVSLRLSSVTAADTAVYYCARSGGMPDMWGQGSLVTVSSASTKGPSVFPLAPSSKSTSGGTAALGCLVKDYFPEPVTVSWNSGALTSGVHTFPAVLQSSGLYSLSSVVTVPSSSLGTQTYICNVNHKPSNTKVDKKVEPKSCDKTHTCPPCPAPELLGGPSVFLFPPKPKDTLMISRTPEVTCVVVDVSHEDPEVKFNWYVDGVEVHNAKTKPREEQYASTYRVVSVLTVLHQDWLNGKEYKCKVSNKALPAPIEKTISKAKGQPREPQVYTLPPSRDELTKNQVSLTCLVKGFYPSDIAVEWESNGQPENNYKTTPPVLDSDGSFFLYSKLTVDKSRWQQGNVFSCSVLHEALHSHYTQKSLSLSPGK light: not shown
16.2	–	0.252	0.252	0.252	0.087	397	Antibody 18 (mAb format) (antibody, human IgG1, kappa, N297A, also called high priority lead mAb) heavy: QVQLQESGPGLVRPSQTLSLTCTVSGFDMGDTYMHWVRQRPGRGLEWMGRIEPAGGHTKYNPSLKSRVTITRDTSKNQVSLRLSSVTAADTAVYYCVRSGGMPDVWGQGSLVTVSSASTKGPSVFPLAPSSKSTSGGTAALGCLVKDYFPEPVTVSWNSGALTSGVHTFPAVLQSSGLYSLSSVVTVPSSSLGTQTYICNVNHKPSNTKVDKKVEPKSCDKTHTCPPCPAPELLGGPSVFLFPPKPKDTLMISRTPEVTCVVVDVSHEDPEVKFNWYVDGVEVHNAKTKPREEQYASTYRVVSVLTVLHQDWLNGKEYKCKVSNKALPAPIEKTISKAKGQPREPQVYTLPPSRDELTKNQVSLTCLVKGFYPSDIAVEWESNGQPENNYKTTPPVLDSDGSFFLYSKLTVDKSRWQQGNVFSCSVLHEALHSHYTQKSLSLSPGK light: not shown

Second part, the binder before the results:

Binder	Kd [1] [nM]	binding result [2]	Kd [3] [nM]	Kd [4] [nM]	Kd [5] [nM]	Kd [6] [nM]	Kd [7] [nM]
Antibody 2 (mAb format) (antibody, human IgG1, kappa, N297A, also called high priority lead mAb) heavy: QVQLQESGPGLVRPSQTLSLTCTVSGLDPDDTYMHWVRQRPGRGLEWMGRIEPAGGHTKYNPSLKSRVTITRDTSKNQVSLRLSSVTAADTAVYYCVISGGLPDVWGQGSLVTVSSASTKGPSVFPLAPSSKSTSGGTAALGCLVKDYFPEPVTVSWNSGALTSGVHTFPAVLQSSGLYSLSSVVTVPSSSLGTQTYICNVNHKPSNTKVDKKVEPKSCDKTHTCPPCPAPELLGGPSVFLFPPKPKDTLMISRTPEVTCVVVDVSHEDPEVKFNWYVDGVEVHNAKTKPREEQYASTYRVVSVLTVLHQDWLNGKEYKCKVSNKALPAPIEKTISKAKGQPREPQVYTLPPSRDELTKNQVSLTCLVKGFYPSDIAVEWESNGQPENNYKTTPPVLDSDGSFFLYSKLTVDKSRWQQGNVFSCSVLHEALHSHYTQKSLSLSPGK light: DIQMTQSPSSLSASVGDRVTITCRASSSVSYMYWYQQKPGKAPKLLIYATSNLASGVPSRFSGSGSGTDFTFTISSLQPEDIATYYCQQWEGNPRTFGQGTKVEIKRTVAAPSVFIFPPSDEQLKSGTASVVCLLNNFYPREAKVQWKVDNALQSGNSQESVTEQDSKDSTYSLSSTLTLSKADYEKHKVYACEVTHQGLSSPVTKSFNRGEC	17.1	no binding	0.195	0.195	0.195	0.408	–
Antibody 13 (mAb format) (antibody, human IgG1, kappa, N297A, also called high priority lead mAb) heavy: QVQLQESGPGLVRPSQTLSLTCTVSGFDYQDTYMHWVRQRPGRGLEWMGRIDPASGHTKYNPSLKSRVTITRDTSKNQVSLRLSSVTAADTAVYYCAVSGGMPDVWGQGSLVTVSSASTKGPSVFPLAPSSKSTSGGTAALGCLVKDYFPEPVTVSWNSGALTSGVHTFPAVLQSSGLYSLSSVVTVPSSSLGTQTYICNVNHKPSNTKVDKKVEPKSCDKTHTCPPCPAPELLGGPSVFLFPPKPKDTLMISRTPEVTCVVVDVSHEDPEVKFNWYVDGVEVHNAKTKPREEQYASTYRVVSVLTVLHQDWLNGKEYKCKVSNKALPAPIEKTISKAKGQPREPQVYTLPPSRDELTKNQVSLTCLVKGFYPSDIAVEWESNGQPENNYKTTPPVLDSDGSFFLYSKLTVDKSRWQQGNVFSCSVLHEALHSHYTQKSLSLSPGK light: DIQMTQSPSSLSASVGDRVTITCRASQGVEYMYWYQQKPGKAPKLLIYATSNLASGVPSRFSGSGSGTDFTFTISSLQPEDIATYYCQQWEGNPRTFGQGTKVEIKRTVAAPSVFIFPPSDEQLKSGTASVVCLLNNFYPREAKVQWKVDNALQSGNSQESVTEQDSKDSTYSLSSTLTLSKADYEKHKVYACEVTHQGLSSPVTKSFNRGEC	18.8	no binding	0.385	0.385	0.385	0.154	–
Antibody 10 (mAb format) (antibody, human IgG1, kappa, N297A, also called high priority lead mAb) heavy: QVQLQESGPGLVRPSQTLSLTCTVSGLDPDDTYMHWVRQRPGRGLEWMGRIEPAGGHTKYNPSLKSRVTITRDTSKNQVSLRLSSVTAADTAVYYCVISGGLPDVWGQGSLVTVSSASTKGPSVFPLAPSSKSTSGGTAALGCLVKDYFPEPVTVSWNSGALTSGVHTFPAVLQSSGLYSLSSVVTVPSSSLGTQTYICNVNHKPSNTKVDKKVEPKSCDKTHTCPPCPAPELLGGPSVFLFPPKPKDTLMISRTPEVTCVVVDVSHEDPEVKFNWYVDGVEVHNAKTKPREEQYASTYRVVSVLTVLHQDWLNGKEYKCKVSNKALPAPIEKTISKAKGQPREPQVYTLPPSRDELTKNQVSLTCLVKGFYPSDIAVEWESNGQPENNYKTTPPVLDSDGSFFLYSKLTVDKSRWQQGNVFSCSVLHEALHSHYTQKSLSLSPGK light: not shown	22.1	no binding	0.482	0.482	0.482	0.253	–
Antibody 17 (mAb format) (antibody, human IgG1, kappa, N297A, also called high priority lead mAb) heavy: QVQLQESGPGLVRPSQTLSLTCTVSGFDMGDTYMHWVRQRPGRGLEWMGRIEPAAGHTKYNPSLKSRVTITRDTSKNQVSLRLSSVTAADTAVYYCVRSGGLPDVWGQGSLVTVSSASTKGPSVFPLAPSSKSTSGGTAALGCLVKDYFPEPVTVSWNSGALTSGVHTFPAVLQSSGLYSLSSVVTVPSSSLGTQTYICNVNHKPSNTKVDKKVEPKSCDKTHTCPPCPAPELLGGPSVFLFPPKPKDTLMISRTPEVTCVVVDVSHEDPEVKFNWYVDGVEVHNAKTKPREEQYASTYRVVSVLTVLHQDWLNGKEYKCKVSNKALPAPIEKTISKAKGQPREPQVYTLPPSRDELTKNQVSLTCLVKGFYPSDIAVEWESNGQPENNYKTTPPVLDSDGSFFLYSKLTVDKSRWQQGNVFSCSVLHEALHSHYTQKSLSLSPGK light: not shown	17.4	–	0.172	0.172	0.172	0.099	452
Antibody 15 (mAb format) (antibody, human IgG1, kappa, N297A, also called high priority lead mAb) heavy: QVQLQESGPGLVRPSQTLSLTCTVSGFDIQDTYMHWVRQRPGRGLEWMGRIEPAGGHTKYNPSLKSRVTITRDTSKNQVSLRLSSVTAADTAVYYCVRSGGLPDAWGQGSLVTVSSASTKGPSVFPLAPSSKSTSGGTAALGCLVKDYFPEPVTVSWNSGALTSGVHTFPAVLQSSGLYSLSSVVTVPSSSLGTQTYICNVNHKPSNTKVDKKVEPKSCDKTHTCPPCPAPELLGGPSVFLFPPKPKDTLMISRTPEVTCVVVDVSHEDPEVKFNWYVDGVEVHNAKTKPREEQYASTYRVVSVLTVLHQDWLNGKEYKCKVSNKALPAPIEKTISKAKGQPREPQVYTLPPSRDELTKNQVSLTCLVKGFYPSDIAVEWESNGQPENNYKTTPPVLDSDGSFFLYSKLTVDKSRWQQGNVFSCSVLHEALHSHYTQKSLSLSPGK light: not shown	17.4	–	0.067	0.067	0.067	0.046	162
